Here are results for 33 variants from the supplement of paper PMC7125110.

± gives the standard error. Fewer inactive variants are shown than the library holds.

B1: glmS ribozyme (parent)
chain: AUAAAAGCGCCAGAACUACAGAAAUGUAGUUGACGAGGAGGAGGUUUAUCGAAUUUUCGGCGGAUGCCUCCAAA

Holding throughout (details): with glucosamine-6-phosphate
Series [1] covers variants of B1. Description: self-cleavage kobs at 640 uM GlcN6P; higher = faster cleavage; RNA array. The method, boiled down:
(§1)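 Glucosamine-6-phosphate (40 μM to 10 mM) in HEPES/KCl/Mg(OAc)2 buffer was flowed over sequenced MiSeq chips, and tiles were imaged over ~14 h. Barcoded ribozyme variants there had been transcribed in situ by E. coli RNA polymerase and were tracked through a hybridised Cy3 probe at 37 °C. One- or two-exponential decay fits to per-tile medians, normalised to baseline and to non-cleaving reference variants, gave kobs. kcat and KM came from weighted Michaelis–Menten fits across concentrations.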

In series [2] the parent is B1. Description: self-cleavage kobs at 2500 uM GlcN6P; higher = faster cleavage; RNA array. The method, boiled down: as §1
Series [3] covers variants of B1. Description: self-cleavage kobs at 10000 uM GlcN6P; higher = faster cleavage; RNA array. The method, boiled down:
as §1

Turning to C11A G32U A39C U54A C67G C68G, the “self-cleavage kobs at 640 uM GlcN6P” value in series [1] amounted to 0.00137 ± 0.00067 s⁻¹.
Take A53G U55A U65G: in series [1], the “self-cleavage kobs at 640 uM GlcN6P” value was determined as 0.000667 ± 8.4e-05 s⁻¹. The “self-cleavage kobs at 2500 uM GlcN6P” value in series [2] amounted to 0.00174 ± 0.00031 s⁻¹.
Regarding A15C G29U U30A, in series [1], the “self-cleavage kobs at 640 uM GlcN6P” value was 0.000117 ± 2.7e-05 s⁻¹. Also, in series [2], the “self-cleavage kobs at 2500 uM GlcN6P” value was determined as 0.000332 ± 0.00011 s⁻¹.
Consider U31G U65A, for which the “self-cleavage kobs at 640 uM GlcN6P” value in series [1] stood at 0.000295 ± 0.00011 s⁻¹. Moreover, in series [3], the “self-cleavage kobs at 10000 uM GlcN6P” value is 0.00166 ± 0.00049 s⁻¹.
In the case of C16U G35U U55A, the “self-cleavage kobs at 640 uM GlcN6P” value in series [1] was under 1e-05 s⁻¹.
As to G7A C34U G35U G37A G40A, in series [1], the “self-cleavage kobs at 640 uM GlcN6P” value was under 1e-05 s⁻¹. Further, the “self-cleavage kobs at 2500 uM GlcN6P” value in series [2] was under 1e-05 s⁻¹.
For A14C A36U A42G, the “self-cleavage kobs at 640 uM GlcN6P” value in series [1] is under 1e-05 s⁻¹. In addition, in series [2], the “self-cleavage kobs at 2500 uM GlcN6P” value was under 1e-05 s⁻¹. Also, the “self-cleavage kobs at 10000 uM GlcN6P” value in series [3] was under 1e-05 s⁻¹.
As for C58U A64C, the “self-cleavage kobs at 640 uM GlcN6P” value in series [1] was under 1e-05 s⁻¹.
With A6C G29C A36U G43U G66A, the “self-cleavage kobs at 640 uM GlcN6P” value in series [1] was under 1e-05 s⁻¹.
For the variant U30A A53U C67G, the “self-cleavage kobs at 640 uM GlcN6P” value in series [1] turned out to be 6.37e-05 ± 2.6e-05 s⁻¹. For the same variant, the “self-cleavage kobs at 2500 uM GlcN6P” value in series [2] was 4.68e-05 ± 2.2e-05 s⁻¹. Moreover, the “self-cleavage kobs at 10000 uM GlcN6P” value in series [3] came to 0.000271 ± 6.3e-05 s⁻¹.
Consider C10G A48U A52U, for which, in series [1], the “self-cleavage kobs at 640 uM GlcN6P” value was under 1e-05 s⁻¹.
Same read-out and setting: the same measure for A33U C34U C71G: under 1e-05 s⁻¹; for C8A G40A A42U G62C: under 1e-05 s⁻¹.
Regarding A12C G13A A14G C16A U17C A18U A39G C50U A52G, the “self-cleavage kobs at 640 uM GlcN6P” value in series [1] was under 1e-05 s⁻¹.
Still for that read-out and setting: in the case of C11A A33G G51A C71U it was under 1e-05 s⁻¹.
Still for that read-out and setting: in the case of G29A G38A G43C it was under 1e-05 s⁻¹.
For G7U C34U A52U, the “self-cleavage kobs at 640 uM GlcN6P” value in series [1] is under 1e-05 s⁻¹. Besides, the “self-cleavage kobs at 2500 uM GlcN6P” value in series [2] is under 1e-05 s⁻¹.
As to A33C U45C U56G G62A U65C, the “self-cleavage kobs at 640 uM GlcN6P” value in series [1] was under 1e-05 s⁻¹.
In the case of G9A G38U U57A, the “self-cleavage kobs at 640 uM GlcN6P” value in series [1] was under 1e-05 s⁻¹.
With G43U U47C G63U, in series [1], the “self-cleavage kobs at 640 uM GlcN6P” value was under 1e-05 s⁻¹. Also, in series [2], the “self-cleavage kobs at 2500 uM GlcN6P” value is under 1e-05 s⁻¹.
Regarding C34A C67U, the “self-cleavage kobs at 640 uM GlcN6P” value in series [1] is under 1e-05 s⁻¹. In addition, the “self-cleavage kobs at 2500 uM GlcN6P” value in series [2] was under 1e-05 s⁻¹.
Turning to A42C G51A U69A, the “self-cleavage kobs at 640 uM GlcN6P” value in series [1] is under 1e-05 s⁻¹.
On the same count and under the same terms, in the case of A36U G51U U56G G59A G66A it was under 1e-05 s⁻¹.
As to A39G U49A G60U, the “self-cleavage kobs at 640 uM GlcN6P” value in series [1] is under 1e-05 s⁻¹. Also, the “self-cleavage kobs at 2500 uM GlcN6P” value in series [2] was under 1e-05 s⁻¹.
Take A15G U31G A39U G60U: in series [1], the “self-cleavage kobs at 640 uM GlcN6P” value was under 1e-05 s⁻¹. Further, in series [2], the “self-cleavage kobs at 2500 uM GlcN6P” value is under 1e-05 s⁻¹.
As to A53U C67G C68G, in series [1], the “self-cleavage kobs at 640 uM GlcN6P” value came to 4.57e-05 ± 2.1e-05 s⁻¹.
Regarding G21U U45C C68U, the “self-cleavage kobs at 640 uM GlcN6P” value in series [1] was determined as 0.000572 ± 0.0001 s⁻¹. The “self-cleavage kobs at 2500 uM GlcN6P” value in series [2] was determined as 0.000312 ± 8e-05 s⁻¹. The “self-cleavage kobs at 10000 uM GlcN6P” value in series [3] came out at 0.00114 ± 0.00043 s⁻¹.
Take A6C G9A G37A G51C: the “self-cleavage kobs at 640 uM GlcN6P” value in series [1] was under 1e-05 s⁻¹.
Still for that read-out and setting: the same measure for C10U A33U U56C C68A: under 1e-05 s⁻¹.
On to C34A G43U U55C, for which the “self-cleavage kobs at 640 uM GlcN6P” value in series [1] is under 1e-05 s⁻¹. In addition, the “self-cleavage kobs at 2500 uM GlcN6P” value in series [2] is under 1e-05 s⁻¹.
Turning to G13U A36G U47C, the “self-cleavage kobs at 640 uM GlcN6P” value in series [1] is under 1e-05 s⁻¹.
For C8U G32A C34G, in series [1], the “self-cleavage kobs at 640 uM GlcN6P” value was under 1e-05 s⁻¹. Moreover, the “self-cleavage kobs at 2500 uM GlcN6P” value in series [2] was under 1e-05 s⁻¹.
As to A14G G37A A52G, in series [1], the “self-cleavage kobs at 640 uM GlcN6P” value is 5.33e-05 ± 1.3e-05 s⁻¹. Also, the “self-cleavage kobs at 2500 uM GlcN6P” value in series [2] stood at 9.21e-05 ± 2e-05 s⁻¹.
